The test system of experiment [1] is eIF4E (residues 69–248). Kind of experiment: MBP pull-down of purified eIF4E (69–248). The experiment is classed as binding, Drosophila melanogaster. Particulars: MBP- and GB1-tagged fragments, 1 h at 4 °C, SDS–PAGE Coomassie, no eIF4G present. The method, then: In Fig. 2c, eIF4G (residues 578–650) and the C+NC peptides of CUP, Thor and 4E-T were expressed with a N-terminal MBP and a C-terminal GB1 tag. The bacterial cells were resuspended in 5 ml of lysis buffer containing 50 mM HEPES (pH 7.2), 200 mM NaCl and 2 mM DTT and lysed by sonication. Purified eIF4E (residues 69–248) was added to the cleared lysates (40–80 μl), adjusted to 0.3 ml with lysis buffer and incubated with 30 μL of amylose resin for 1 h at 4 °C. The beads were washed three times with lysis buffer and eluted with 64 μl of the same buffer containing 25 mM maltose. The proteins were analyzed by 15% SDS–PAGE followed by Coomassie blue staining.

The target in experiment [2] is T1, eIF4E–eIF4G complex (eIF4E WT; eIF4G residues 578–650) (Drosophila melanogaster, UniProt P48598).
T1 construct: full-length eIF4E (WT or the II-AA mutant) containing an N-terminal SNH-tag was coexpressed; made in house; host or cells: E. coli BL21 Star (DE3), coexpression
T1 sequence (P48598 1-248 isoform P48598-2): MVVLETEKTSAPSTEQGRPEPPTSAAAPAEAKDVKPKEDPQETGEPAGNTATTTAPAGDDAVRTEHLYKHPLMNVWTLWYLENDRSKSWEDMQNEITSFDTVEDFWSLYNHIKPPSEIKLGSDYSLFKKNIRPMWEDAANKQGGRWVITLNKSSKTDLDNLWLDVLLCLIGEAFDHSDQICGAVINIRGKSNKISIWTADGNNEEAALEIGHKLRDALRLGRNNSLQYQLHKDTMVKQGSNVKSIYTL
The experiment can be described thus: Competition assay, displacement of GST-eIF4G from preassembled eIF4E (WT)–eIF4G complexes. As to conditions: Fig. 5a,c; fivefold molar excess of MBP-tagged competitor, 30 min at 4 °C, m7GTP or Strep-Tactin pull down. Type of experiment: biochemical. The method, then: (§1) For the competition assays shown in Figs 5a,c and 6a,b, complexes containing SHN- or MBP-tagged eIF4E (WT or II-AA mutant) bound to GST-eIF4G (residues 578–650), GST-Thor (full length), GST-4E-T (residues 1–58) or GST-CUP (311–440) were obtained by coexpressing the corresponding proteins in E. coli BL21 (DE3) STAR cells (30 ml culture). The cells were resuspended in lysis buffer (5 ml) that was supplemented with EDTA-free protease inhibitor (Roche) and 1 mg ml^−1 lysozyme and lysed by sonication. The cleared lysates were incubated with 400 μl of Protino Glutathione Agarose 4B (Macherey-Nagel) for 1 h. The beads were washed three times with lysis buffer, and the proteins were eluted after 10 min of incubation with lysis buffer containing 25 mM L-glutathione. The protein complexes were stored at −20 °C or used in competition assays.
The purified recombinant complexes were mixed with excess amounts of the indicated purified competitor proteins (Fig. 5c) or with bacterial lysates expressing the competitor proteins (Figs 5a and 6) and incubated for 30 min at 4 °C. After incubation, 20 μl of immobilized γ-Aminophenyl-m^7GTP or Strep-Tactin Sepharose (IBA), were added to the samples and incubated for another 40 min at 4 °C. The beads were washed three times with lysis buffer and eluted with lysis buffer containing 2.5 mM desthiobiotin (Strep-Tactin Sepharose) or with 20 μl of SDS–PAGE loading buffer (Aminophenyl-m^7GTP beads). The proteins were analyzed by 10–15% SDS–PAGE followed by staining with Coomassie blue staining. […]

The subject of experiment [3] is eIF4E (WT) bound to GST-CUP, GST-Thor, GST-4E-T or GST-eIF4G. Kind of experiment: Competition by MBP-eIF4G with 4E-BPs or eIF4G bound to WT eIF4E. The experiment is classed as biochemical, Drosophila melanogaster. Particulars: excess MBP-eIF4G (residues 578–650), 30 min at 4 °C, Strep-Tactin pull down. The method, then:
as §1
(§2) The purified recombinant complexes were mixed with excess amounts of the indicated purified competitor proteins (Fig. 5c) or with bacterial lysates expressing the competitor proteins (Figs 5a and 6) and incubated for 30 min at 4 °C. After incubation, 20 μl of immobilized γ-Aminophenyl-m^7GTP or Strep-Tactin Sepharose (IBA), were added to the samples and incubated for another 40 min at 4 °C. […] The proteins were analyzed by 10–15% SDS–PAGE followed by staining with Coomassie blue staining.

Experiment [4] relates to eIF4E II-AA mutant bound to GST-4E-BP. The experiment can be described thus: Competition by MBP-eIF4G with 4E-BPs bound to eIF4E II-AA mutant. As to conditions: 30 min at 4 °C. The experiment is classed as biochemical, Drosophila melanogaster. The method, then:
as §1, §2

Experiment [5] has as its system endogenous eIF4E. The experiment can be described thus: Coimmunoprecipitation / m7GTP pull-down with endogenous eIF4E in S2 cell lysates. The experiment is classed as cell-based, Drosophila melanogaster. Particulars: western blot. The essentials: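 S2 cell lysates expressing HA-tagged 4E-BPs (CUP, Thor, 4E-T), eIF4G or mutants, immunoprecipitated with anti-eIF4E or anti-HA antibodies, or pulled down with m7GTP beads for 1 h at 4 °C. Washes in NET buffer (50 mM Tris pH 7.4, 150 mM NaCl, 1 mM EDTA, 0.1% Triton X-100). Bound proteins detected by anti-HA/anti-eIF4E western blot; pre-immune serum and HA-MBP as negative controls.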
On the technique in general: A western blot detects proteins with antibodies after separation by electrophoresis.

In experiment [6] the test system is eIF4E II-AA (lateral surface mutant). Kind of experiment: Coimmunoprecipitation with HA-eIF4E II-AA in S2 cells. The experiment is classed as cell-based, Drosophila melanogaster. Particulars: HA-eIF4E II-AA vs WT, western blot. The method, then: The coimmunoprecipitations assays were performed as previously described. For the pull downs using m^7GTP beads, 25 μl of immobilized γ-aminophenyl-m^7GTP (C10-spacer—Jena Bioscience) beads was added to the cell lysates and the mixtures were rotated for 1 h at 4 °C. The beads were washed three times with NET buffer (50 mM Tris (pH 7.4), 150 mM NaCl, 1 mM EDTA and 0.1% Triton X-100). The bound proteins were eluted with 2 × SDS–polyacrylamide gel electrophoresis (SDS–PAGE) sample buffer and analyzed by western blotting (WB). All of the WB experiments were developed with the ECL western blotting detection system (GE Healthcare) as recommended by the manufacturer. The antibodies used in this study are listed in Supplementary Table 2.

Experiment [7] deals with eIF4E II-AA mutant (full length). The experiment can be described thus: GST/MBP pull-down of full-length eIF4E II-AA mutant, coexpressed in E. coli. The experiment is classed as binding, Drosophila melanogaster. Particulars: recombinant CUP (311–440), Thor (full length), 4E-T (1–58) or eIF4G (578–650), WT or mutant, SDS–PAGE. The method, then: For the pull-down assays shown in Fig. 3 and Supplementary Fig. 6a, the full-length His6- or SHN-tagged eIF4E (WT or II-AA mutant) was coexpressed with GST or MBP-tagged protein fragments, including CUP (residues 311–440), Thor (full length), 4E-T (residues 1–58) or eIF4G (residues 578–650) in E. coli BL21 (DE3) STAR cells in autoinducing medium[44] overnight at 20 °C. The cells were resuspended in lysis buffer (20 mM Tris–HCl (pH 7.5), 100 mM NaCl, 1 mM DTT) supplemented with EDTA-free protease inhibitor (Roche) and lysed by sonication. The cleared lysates were incubated for 1 h with 20 μl of Protino Glutathione Agarose 4B beads (Macherey-Nagel) or amylose resin (New England Biolabs). The beads were washed three times with lysis buffer, and the bound proteins were eluted with lysis buffer containing 25 mM L-glutathione or 25 mM maltose for 15 min. The proteins were analyzed by 10–15% SDS–PAGE followed by Coomassie blue staining.

In experiment [8] the test system is endogenous eIF4E and HA-tagged 4E-BPs in S2 cells. The experiment can be described thus: Immunofluorescence localization in S2 cells. Type of experiment: cell-based, Drosophila melanogaster. The method, then: S2 cells expressing HA-tagged versions of CUP, Thor and 4E-T or the indicated mutants were treated with Leptomycin B (100 nM; Sigma) or methanol as a control for 12 h. After the LMB treatment, the cells were allowed to adhere to poly-D-lysine–coated coverslips for 15 min and were fixed with 2% paraformaldehyde for 10 min. The cells were then permeabilized with 0.1% Triton X-100 in PBS (10 min) and stained with affinity-purified monoclonal anti-HA (Covance 1:1,000) and polyclonal anti-eIF4E (1:2,000) antibodies in PBS containing 1% BSA for 1 h. Alexa Fluor 594-labeled goat anti-rabbit and 488-labeled anti-mouse antibodies (Invitrogen) were used at dilutions of 1:1,000 and 1:2,000, respectively. The cells were mounted using Fluoromount-G (Southern Biotech). The images were acquired at room temperature using a confocal microscope (TCS SP2; Leica) that was fitted with a Plan-Apochromat × 100 NA 1.40 oil immersion objective and a series of three photomultipliers (Hamamatsu Photonics) controlled with the Leica confocal software (version 2.61). The images were prepared using Photoshop (Adobe). […]
Thor) independent experiments. […] Confocal fluorescent […]
micrographs of fixed S2 cells expressing HA-4E-T and GFP-Tral. The localization of HA-4E-T was determined by indirect immunofluorescence using an anti-HA antibody. The merged pictures show the HA signal in red and the GFP-Tral signal in green. Bar: 5 μm.

The test system of experiment [9] is eIF4E W106A (dorsal surface mutant). Particulars: known effect of W106A substitution; cited from earlier work.

No end group written: not given here.

Consider “CUP NC: CUP residues 362–376, non-canonical motif, MBP/GB1 fusion (IELEGRLRRMNIWRT; also: MBP/GB1 fusion; UniProt Q9VMA3 362-376, looked up, fragment)”, for which the “pull down of purified eIF4E (in words)” value in experiment [1] is given as “bind to eIF4E in the absence of eIF4G”. Also, the “competition with eIF4G for eIF4E WT (in words)” value in [2] is listed as “did not compete with eIF4G”.

B1: MBP-eIF4G: MBP-eIF4G (residues 578–650) (protein)
chain: PETTLNDKQDSTDLKVKVSAKISSIINYNEGQWSPNNPSGKKQYDREQLLQLREVKASRIQPEVKNVSILPQP
modifications: left off: MBP, N-terminal, kept | GB1, C-terminal, kept
For the molecule B1, in experiment [3], the “displacement of proteins bound to WT eIF4E (in words)” value is “did not displace CUP, Thor, 4E-T or eIF4G bound to WT eIF4E”. The “displacement of CUP bound to eIF4E II-AA (in words)” value in experiment [4] (excess MBP-eIF4G (residues 578–650) vs GST-CUP (311–440)) is “partially displaced CUP”. The “displacement of Thor bound to eIF4E II-AA (in words)” value in [4] (excess MBP-eIF4G (residues 578–650) vs GST-Thor (full length)) is “completely displaced full-length Thor”.

B2: CUP: Dm CUP (1–1117), Q9VMA3; residues 311–440 in pull-down assays (protein)
chain: MQMAEAEQENGAGALKIATNAGATDRPAHQQLPLPVEDQQDEVLTPAEKGKFEYPPPPPPPTPVQAPLATKATALNASQEHDDDEANSEKWEDPCAPPPPPPLPTSAFLATGLGYLKLPAFKLKDALEKAITKLEANKRTLKASPESSRSIKNKNVVALEMLPRRSNPETIGDGSMLASTSTAVMLQTKKPAVIVEMERRCKIINLLAKQNQILESISGEAIPMHGPSKHLHEDEGLTLQVLSARASTPYTQPSSMLSCTAVSCDLEHDSPRKQVASKEAVPEQQSSQVQQKRPPSTGIHKPGSLRAPKAVRPTTAPVVSSKPVKSYTRSRLMDIRNGMFNALMHRSKESFVMPRIATCDDIELEGRLRRMNIWRTSDGTRFRTRSTTANLNMNNNNNNECMPAFFKNKNKPNLISDESIIQSQPPQPQTEFQDPAIVNQRRIGSGRLNHSKWGYNDEDYHSYHNGKSQHMEEVNSKNSKNMTVLQFFDNGEISSQPQRRPNTPVMGMSINRSENDTLHSNESSEDLSRANENYVKRVMSGFLVVSKPKSRDVEDRHHRRYRNQNEEPEWFSCGPTSRLDTIELCGFDEDEEKMLKEGNKNHGLGETERETSKQKMDHKYKWTHAEPMGRSKYMPKHDTNNNHNVENMNNVMATEHQQQKEEKRPGSGRSFQFDKFNQSQQNYESSSYVNHQQPPQTQPQQMQQQSNTNTNNSKFMSFFANEGNSSSSSLNEFFKQAINQGHGNNPEQPKSLGHIGQMPSVDQLEAKWRRNSLNNVGETANKQTDNFQKLIGSLSSAKPQSQAVGYDAISNFIMQQQQYQQQQQKQHLIIQQQQQHTAFLASLQLKAILGRADTQLLLLRLTKGEISKHGLLVQLANPRLTDMDREAITAVLQFTNTQQQQQQHKQQLDMLSSTVIASQLQNLHNLAIVQQTLAARQQPQHNPQTQAPHQLSQEDLQAHANVIMRNAVMKRKIEEQTSKLINGGAKHQAQQQYLNRGQQRQARPDANSNALLHALISGGGNNHASGYPMNGQPQKHHSNLRFGDNQNFQSFESNQPHFATQYKQQYQQSQQQHPHQQPQQLNSLHQNNAGAVNSFNKAQMQAQSAISMLPNSGDEFH
modifications: left off: GFP, end not stated, kept
notes: Dm CUP (1–1117), Q9VMA3; residues 311–440 in pull-down assays
As for B2, the “interaction with endogenous eIF4E (in words)” value in experiment [5] was “interacted with endogenous eIF4E”. Also, the “association with eIF4E II-AA (in words)” value in experiment [6] is reported as “disrupted the association”. Besides, in [7], the “binding to eIF4E II-AA mutant (in words)” value was “pulled down comparable amounts of WT and mutant eIF4E”. In addition, the “nuclear accumulation of endogenous eIF4E upon LMB (in words)” value in [8] (S2 cells expressing 4E-BP or mutant, LMB 100 nM, 12 h) is on record as “endogenous eIF4E accumulated in the nucleus”. For the same molecule, in experiment [8] (S2 cells overexpressing 4E-BP or mutant, −LMB), the “localization of endogenous eIF4E (in words)” value is reported as “evenly distributed in the cytoplasm”. Also, the “nuclear accumulation of 4E-BP upon LMB (in words)” value in [8] (S2 cells, LMB 100 nM, 12 h) was “nuclear accumulation”. In experiment [8] (S2 cells, steady-state, −LMB), the “localization of the 4E-BP (in words)” value is recorded as “distributed evenly throughout the cytoplasm”. Also, the “binding to eIF4E W106A (in words)” value in [9] is recorded as “abolishes the binding”.

(Values after PMC4164784, “4E-BPs require non-canonical 4E-binding motifs and a lateral surface of eIF4E to repress translation” (Nature Communications, 2014).)
